Tests used:
[1] = molecular target: MapZ cytoplasmic domain (MapZ_(cyto)), wild type, residues 1-159 (S. pneumoniae (strain ATCC BAA-255/R6)) (UniProt Q8DR55); test: NMR titration; 1H-15N BEST-TROSY of 30 µM 15N MapZ_(cyto) with polymeric FtsZb at 1:1, 1:3, 1:4 and 1:6; 30 mM HEPES, 200 mM KCl, pH 7.5, 10 mM GTP and MgCl2, 5 °C; peak intensity decrease; apparent constants, 1:1 complex assumed
[2] = molecular target: MapZ cytoplasmic domain (MapZ_(cyto)), wild type, residues 1-159 (S. pneumoniae (strain ATCC BAA-255/R6)) (UniProt Q8DR55); test: NMR titration; 1H-15N BEST-TROSY of 15N MapZ_(cyto) (30 to 50 µM, one sample for each ratio) with unlabelled monomeric FtsZb (no GTP, no MgCl2), 5 °C; peak intensity decrease; apparent constants, 1:1 complex assumed

Chain of UniProt Q8DR55 (Q8DR55 other isoform, or with tags, fused parts or gaps): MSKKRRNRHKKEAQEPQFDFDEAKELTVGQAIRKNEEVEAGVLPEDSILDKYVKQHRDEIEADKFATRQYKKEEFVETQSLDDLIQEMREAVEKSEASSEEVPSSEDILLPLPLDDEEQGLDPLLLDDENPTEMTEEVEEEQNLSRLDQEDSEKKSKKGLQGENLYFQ

Kd [1]: 10 to 100 µM
Kd [2]: 10 to 100 µM
Substance: FtsZb, wild-type FtsZ from S. pneumoniae with an N-terminal glycine left after removal of GST by TEV protease (natural protein)
